Results published in paper PMC9352680, “A comprehensive thermodynamic model for RNA binding by the Saccharomyces cerevisiae Pumilio protein PUF4”.
Positions count from the first letter of the chain named. Names and notes keep the numbering of the source.

T1: PUF4 RNA-binding domain (Saccharomyces cerevisiae, UniProt P25339 537-888)
T1 sequence: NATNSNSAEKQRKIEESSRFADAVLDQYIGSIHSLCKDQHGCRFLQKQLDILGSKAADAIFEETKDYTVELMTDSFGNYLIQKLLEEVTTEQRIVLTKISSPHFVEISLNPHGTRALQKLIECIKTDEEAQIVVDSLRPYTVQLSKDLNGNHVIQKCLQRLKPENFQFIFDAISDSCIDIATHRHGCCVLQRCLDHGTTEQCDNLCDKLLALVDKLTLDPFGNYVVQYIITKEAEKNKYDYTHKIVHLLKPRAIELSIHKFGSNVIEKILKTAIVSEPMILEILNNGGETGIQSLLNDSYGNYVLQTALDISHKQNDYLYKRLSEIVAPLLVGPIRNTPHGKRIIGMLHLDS

B1: Ic_S4_P3E.1_K3.1_C3.1_H3.1_A3.1_[A6C]_F3.1_T3.1 (ssRNA)
RNA: UUUGACAACUGAUCGUUCUUUCUUGUAUCUAUUCUUUCUCGAUCAGUUGUCUUU
B2: Ib_S4_P4E.1_K4.1_C4.1_H4.1_[G2C]_[T3C]_A4.1_F4.1_T4.1 (ssRNA)
RNA: UUUGACAACUGAUCGUUCUUUCUUCCAUAUUAUUCUUUCUCGAUCAGUUGUCUUU
B3: Ib_S4_P4E.1_K4.1_C4.1_H4.1_[A4G]_A4.1_[A6G]_F4.1_T4.1 (ssRNA)
RNA: B2 RNA with C25G, C26U, A27G, A29G
B4: Ib_S4_P4E.1_K4.1_C4.1_H4.1_A4.1_[A6C]_[T7G]_F4.1_T4.1 (ssRNA)
RNA: B2 RNA with C25G, C26U, A29C, U30G
B5: Ib_S4_P4E.1_K4.1_C4.1_H4.1_[G2T]_A4.1_[A6C]_F4.1_T4.1 (ssRNA)
RNA: B2 RNA with C25U, C26U, A29C
B6: Ib_S4_P4E.1_K4.1_C4.1_H4.1_[T1A]_A4.1_[T5A]_F4.1_T4.1 (ssRNA)
RNA: B2 RNA with U24A, C25G, C26U, U28A
B7: Ib_S4_P4E.1_K4.1_C4.1_H4.1_[A4C]_A4.1_[A6G]_F4.1_T4.1 (ssRNA)
RNA: B2 RNA with C25G, C26U, A27C, A29G
B8: Ib_S4_P4E.1_K4.1_C4.1_H4.1_A4.1_[A6C]_[T7C]_F4.1_T4.1 (ssRNA)
RNA: B2 RNA with C25G, C26U, A29C, U30C
B9: Ib_S4_P4E.1_K4.1_C4.1_H4.1_[G2C]_A4.1_[T7G]_F4.1_T4.1 (ssRNA)
RNA: B2 RNA with C26U, U30G
B10: Ib_S4_P4E.1_K4.1_C4.1_H4.1_[G2A]_A4.1_[T7A]_F4.1_T4.1 (ssRNA)
RNA: B2 RNA with C25A, C26U, U30A
B11: Ib_S4_P4E.1_K4.1_C4.1_H4.1_[G2T]_A4.1_[T7A]_F4.1_T4.1 (ssRNA)
RNA: B2 RNA with C25U, C26U, U30A
B12: Ib_S4_P4E.1_K4.1_C4.1_H4.1_[T3C]_A4.1_[T7C]_F4.1_T4.1 (ssRNA)
RNA: B2 RNA with C25G, U30C
B13: Ib_S4_P4E.1_K4.1_C4.1_H4.1_A4.1_[A6T]_[T7G]_F4.1_T4.1 (ssRNA)
RNA: B2 RNA with C25G, C26U, A29U, U30G
B14: Ib_S4_P4E.1_K4.1_C4.1_H4.1_[T1A]_A4.1_[A6C]_F4.1_T4.1 (ssRNA)
RNA: B2 RNA with U24A, C25G, C26U, A29C
B15: Ib_S4_P4E.1_K4.1_C4.1_H4.1_[A4T]_A4.1_[T7G]_F4.1_T4.1 (ssRNA)
RNA: B2 RNA with C25G, C26U, A27U, U30G
B16: Ib_S4_P4E.1_K4.1_C4.1_H4.1_[T3C]_A4.1_[T7G]_F4.1_T4.1 (ssRNA)
RNA: B2 RNA with C25G, U30G
B17: Ib_S4_P4E.1_K4.1_C4.1_H4.1_A4.1_[T5G]_[A6C]_F4.1_T4.1 (ssRNA)
RNA: B2 RNA with C25G, C26U, U28G, A29C
B18: Ia_S4_P4E.1_K4.1_C4.1_H4.1_[G2C]_A4.1_F4.1_T4.1 (ssRNA)
RNA: B2 RNA with C26U
B19: Ia_S4_P4E.1_K4.1_C4.1_H4.1_A4.1_F4.1_[A9G]_T4.1 (ssRNA)
RNA: B2 RNA with C25G, C26U, A32G
B20: Ib_S4_P4E.1_K4.1_C4.1_H4.1_[G2T]_[A4G]_A4.1_F4.1_T4.1 (ssRNA)
RNA: B2 RNA with C25U, C26U, A27G
B21: Ib_S4_P4E.1_K4.1_C4.1_H4.1_[G2T]_[T3C]_A4.1_F4.1_T4.1 (ssRNA)
RNA: B2 RNA with C25U
B22: Ib_S4_P4E.1_K4.1_C4.1_H4.1_[T3C]_[A4C]_A4.1_F4.1_T4.1 (ssRNA)
RNA: B2 RNA with C25G, A27C
B23: Ib_S4_P4E.1_K4.1_C4.1_H4.1_[A4C]_A4.1_[T5A]_F4.1_T4.1 (ssRNA)
RNA: B2 RNA with C25G, C26U, A27C, U28A
B24: Ib_S4_P4E.1_K4.1_C4.1_H4.1_[A4T]_A4.1_[T5A]_F4.1_T4.1 (ssRNA)
RNA: B2 RNA with C25G, C26U, A27U, U28A
B25: Ib_S4_P4E.1_K4.1_C4.1_H4.1_[T1C]_A4.1_[T5A]_F4.1_T4.1 (ssRNA)
RNA: B2 RNA with U24C, C25G, C26U, U28A
B26: Ib_S4_P4E.1_K4.1_C4.1_H4.1_A4.1_[T5A]_[T7C]_F4.1_T4.1 (ssRNA)
RNA: B2 RNA with C25G, C26U, U28A, U30C
B27: Ib_S4_P4E.1_K4.1_C4.1_H4.1_[T1C]_A4.1_[A6G]_F4.1_T4.1 (ssRNA)
RNA: B2 RNA with U24C, C25G, C26U, A29G
B28: Ic_S4_P4E.1_K4.1_C4.1_H4.1_A4.1_[T5C]_[T7A]_F4.1_T4.1 (ssRNA)
RNA: B2 RNA with C25G, C26U, U28C, U30A
B29: Ib_S4_P4E.1_K4.1_C4.1_H4.1_[G2T]_[A4C]_A4.1_F4.1_T4.1 (ssRNA)
RNA: B2 RNA with C25U, C26U, A27C
B30: Ib_S4_P4E.1_K4.1_C4.1_H4.1_[A4T]_A4.1_[A6C]_F4.1_T4.1 (ssRNA)
RNA: B2 RNA with C25G, C26U, A27U, A29C
B31: Ib_S4_P4E.1_K4.1_C4.1_H4.1_[A4C]_A4.1_[A6C]_F4.1_T4.1 (ssRNA)
RNA: B2 RNA with C25G, C26U, A27C, A29C
B32: Ib_S4_P4E.1_K4.1_C4.1_H4.1_[T3G]_[A4T]_A4.1_F4.1_T4.1 (ssRNA)
RNA: B2 RNA with C25G, C26G, A27U
B33: Ib_S4_P4E.1_K4.1_C4.1_H4.1_[T3C]_A4.1_[T7A]_F4.1_T4.1 (ssRNA)
RNA: B2 RNA with C25G, U30A
B34: Ib_S4_P4E.1_K4.1_C4.1_H4.1_A4.1_[T5G]_[A6T]_F4.1_T4.1 (ssRNA)
RNA: B2 RNA with C25G, C26U, U28G, A29U
B35: Ib_S4_P4E.1_K4.1_C4.1_H4.1_[G2A]_[A4T]_A4.1_F4.1_T4.1 (ssRNA)
RNA: B2 RNA with C25A, C26U, A27U
B36: Ib_S4_P4E.1_K4.1_C4.1_H4.1_[T1A]_A4.1_[A6T]_F4.1_T4.1 (ssRNA)
RNA: B2 RNA with U24A, C25G, C26U, A29U
B37: Ib_S4_P4E.1_K4.1_C4.1_H4.1_[A4T]_A4.1_[A6G]_F4.1_T4.1 (ssRNA)
RNA: B2 RNA with C25G, C26U, A27U, A29G
B38: Ib_S4_P4E.1_K4.1_C4.1_H4.1_[G2C]_A4.1_[A6C]_F4.1_T4.1 (ssRNA)
RNA: B2 RNA with C26U, A29C
B39: Ib_S4_P4E.1_K4.1_C4.1_H4.1_[T3C]_A4.1_[A6T]_F4.1_T4.1 (ssRNA)
RNA: B2 RNA with C25G, A29U
B40: Ib_S4_P4E.1_K4.1_C4.1_H4.1_[A4C]_A4.1_[T7C]_F4.1_T4.1 (ssRNA)
RNA: B2 RNA with C25G, C26U, A27C, U30C
B41: Ib_S4_P4E.1_K4.1_C4.1_H4.1_[T1G]_A4.1_[T7A]_F4.1_T4.1 (ssRNA)
RNA: B2 RNA with U24G, C25G, C26U, U30A
B42: Ib_S4_P4E.1_K4.1_C4.1_H4.1_A4.1_[A6C]_[T7A]_F4.1_T4.1 (ssRNA)
RNA: B2 RNA with C25G, C26U, A29C, U30A
B43: Ib_S4_P4E.1_K4.1_C4.1_H4.1_[A4C]_A4.1_[T7A]_F4.1_T4.1 (ssRNA)
RNA: B2 RNA with C25G, C26U, A27C, U30A
B44: Ib_S4_P4E.1_K4.1_C4.1_H4.1_[T1G]_A4.1_[A6T]_F4.1_T4.1 (ssRNA)
RNA: B2 RNA with U24G, C25G, C26U, A29U
B45: Ib_S4_P4E.1_K4.1_C4.1_H4.1_[G2A]_[A4G]_A4.1_F4.1_T4.1 (ssRNA)
RNA: B2 RNA with C25A, C26U, A27G
B46: Ib_S4_P4E.1_K4.1_C4.1_H4.1_[T1C]_A4.1_[A6T]_F4.1_T4.1 (ssRNA)
RNA: B2 RNA with U24C, C25G, C26U, A29U
B47: Ic_S4_P4E.1_K4.1_C4.1_H4.1_A4.1_[T5C]_[T7G]_F4.1_T4.1 (ssRNA)
RNA: B2 RNA with C25G, C26U, U28C, U30G
B48: Ib_S4_P4E.1_K4.1_C4.1_H4.1_[A4T]_A4.1_[T7C]_F4.1_T4.1 (ssRNA)
RNA: B2 RNA with C25G, C26U, A27U, U30C
B49: Ib_S4_P4E.1_K4.1_C4.1_H4.1_A4.1_[T5C]_[A6T]_F4.1_T4.1 (ssRNA)
RNA: B2 RNA with C25G, C26U, U28C, A29U
B50: Ib_S4_P4E.1_K4.1_C4.1_H4.1_[A4C]_A4.1_[A6T]_F4.1_T4.1 (ssRNA)
RNA: B2 RNA with C25G, C26U, A27C, A29U
B51: Ia_S4_P4E.1_K4.1_C4.1_H4.1_A4.1_F4.1_[T8C]_T4.1 (ssRNA)
RNA: B2 RNA with C25G, C26U, U31C
B52: Ib_S4_P4E.1_K4.1_C4.1_H4.1_[G2T]_A4.1_[T5C]_F4.1_T4.1 (ssRNA)
RNA: B2 RNA with C25U, C26U, U28C
B53: Ib_S4_P4E.1_K4.1_C4.1_H4.1_[T1G]_A4.1_[T5C]_F4.1_T4.1 (ssRNA)
RNA: B2 RNA with U24G, C25G, C26U, U28C

target: T1, PUF4 RNA-binding domain; experiment: Mg; RNA-MaP; 20 mM Na-HEPES pH 7.4, 30 mM KOAc, 0.75 mM MgCl2, 0.1% Tween-20, 5% glycerol, 0.1 mg/mL BSA, 2 mM DTT; 25 C; 0.0125-409.6 nM protein; conditions: tags: N-His6-TEV cleaved; C-SNAP kept, Cy3B-labelled; label: tethered on chip by stalled RNA polymerase

Binder	Kd [nM]
B1	10.1
B2	2090
B3	10.8
B4	14.5
B5	> 2300
B6	858
B7	191
B8	3.08
B9	> 2300
B10	75.2
B11	1200
B12	48.1
B13	5.79
B14	2270
B15	30.9
B16	434
B17	4.82
B18	227
B19	3.07
B20	7.27
B21	2000
B22	814
B23	48.4
B24	13.4
B25	182
B26	2.55
B27	700

Binder	Kd [nM]
B28	0.996
B29	> 2300
B30	54.8
B31	110
B32	1280
B33	215
B34	5.58
B35	669
B36	1520
B37	64.1
B38	> 2300
B39	202
B40	12.9
B41	332
B42	0.977
B43	19
B44	971
B45	15.2
B46	133
B47	1.45
B48	7.04
B49	1.04
B50	29.8
B51	9.03
B52	356
B53	42.9
UCUCUUUGUCUAUAUCUCUU (ssRNA) [Ia_S1_P3E.1_K3.1_C3.1_H3.1_[A4C]_A3.1_F3.1_T3.1]	1170
